Source: patent US20250333497A1, “ACTIVATING ANTIBODIES OF RECEPTOR PROTEINS PLXDC1 AND PLXDC2” (THE REGENTS OF THE UNIVERSITY OF CALIFORNIA, priority 2022, published 2025)

Assays:
PLXDC1 [1] = test: Promotor activity in PLXDC1-expressing cells (activation of PLXDC signaling); assay type: cell-based
From the text: This example tested some of the identified antibodies for their activity in activating PLXDC signaling.

[2] = target: T1, Domain A-deleted PLXDC1 (PLXDC1-dA) (Homo sapiens, UniProt Q8IUK5); test: Domain A binding specificity: binding to Domain A-deleted PLXDC1 expressed in transfected cells
T1 construct: expressed in transfected cells
From the text: (§1) The specific binding to Domain A of a PLXDC protein can be tested with a method described herein. In some embodiments, the method employs a PLXDC with the Domain A deleted. […] An example is Compound 369 as described above.
(§2) The Domain A-binding antibodies are 3-C11, 4-A8, 5-E2, 2-H2, 3-G6, 3-G7, 8-A7, 8-A9, 8-C9 and 8-D9.
(§3) Both full length PLXDC1 and Domain A deleted PLXDC1 (PLXDC1-dA) have an epitope tag on the N-terminus.

PLXDC1 [3] = test: Antibody binding to PLXDC1 with and without small molecule agonist compound 369 (FIG. 5)
[4] = system: human lung tumor endothelial cells expressing PLXDC1; test: Ex vivo tumor angiogenesis model: killing of tumor endothelial cells; assay type: cell-based; conditions: signal day 1 vs day 8, 500 nM printed for 3-G7
Procedure: The following protocol describes the Ex Vivo Tumor Angiogenesis Model.
1. The day before the experiment, all necessary tools were sprayed with 70% ethanol and sterilized under UV light overnight, including blade, dissecting and micro-dissecting scissors and […]. 24-well dishes were placed at 4° C. to pre-chill plates and Matrigel was thawed, 24 hours before tumor dissection.
2. 70% ethanol was sprayed on working bench. Two sterile petri dishes were prepared with 10 ml sterile PBS. The following steps 3 and 4 are necessary for mouse tumor models. For fresh human tumor, steps 3 and 4 are skipped.
3. The tumor-bearing mice were euthanized. 70% ethanol was sprayed on the mouse and the tumor was removed using sterilized dissecting tools (avoid the fur). The tumor was rinsed in petri dish with sterile PBS to remove ethanol and fur. The tumor was transferred to a new petri dish with PBS for dissection. The dish is placed on ice.
4. […]
9. When the assay was ready to be analyzed for cell death (e.g., 48 hours after drug addition), the dye mixture was prepared by mixing 6 μl of green dye to stain live cells (5 mg/ml Fluorescein diacetate or FDA in DMSO) with 30 μl of red dye (2.5 mg/ml Propidium iodide or PI in PBS) to stain dead cells in an Eppendorf tube. […]
14. Taking pictures in the red and green channels would allow not only the recording of the results but also more accurate quantitation of the results. […]

[5] = target: T2, full length PLXDC1 (PLXDC1-Full) (Homo sapiens, UniProt Q8IUK5); test: Domain A binding specificity: binding to full length PLXDC1 expressed in transfected cells
T2 construct: expressed in transfected cells
T2 sequence (Q8IUK5 19-500): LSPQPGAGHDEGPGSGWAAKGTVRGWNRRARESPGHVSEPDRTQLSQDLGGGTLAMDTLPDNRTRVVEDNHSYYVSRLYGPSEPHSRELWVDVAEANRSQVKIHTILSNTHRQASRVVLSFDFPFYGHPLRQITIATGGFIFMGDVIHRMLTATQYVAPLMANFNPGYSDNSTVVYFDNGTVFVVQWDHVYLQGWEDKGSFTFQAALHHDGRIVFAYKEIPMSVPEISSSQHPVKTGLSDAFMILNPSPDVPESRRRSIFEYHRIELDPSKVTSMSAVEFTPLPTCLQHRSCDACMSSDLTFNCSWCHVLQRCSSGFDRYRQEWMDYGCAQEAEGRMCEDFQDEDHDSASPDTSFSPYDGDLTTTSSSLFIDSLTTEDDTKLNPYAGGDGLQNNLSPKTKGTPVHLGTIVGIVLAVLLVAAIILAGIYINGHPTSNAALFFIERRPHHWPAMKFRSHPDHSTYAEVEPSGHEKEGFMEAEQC
From the text: as §1, §2, §3

[6] = antibodies of Table 3 tested for ability to bind Domain A
[7] = transfected into a cell line that does not express PLXDC1, FIG. 3-4

binding to PLXDC1 mutant with Domain A deleted [2, 6]: not the mutant with Domain A deleted
binding to Domain A-deleted PLXDC1 (PLXDC1-dA) [2, 7]: did not bind to Domain A-deleted PLXDC1
affinity to PLXDC1 when compound 369 was added (PLXDC1 [3]; small molecule agonist compound 369 present, FIG. 5 upper curve): greatly higher affinity
affinity to standalone PLXDC1 (PLXDC1 [3]; without compound 369, FIG. 5 lower curve): low nM affinity
binding to PLXDC1 [5, 6]: able to bind PLXDC1
binding to full length PLXDC1 (PLXDC1-Full) [5, 7]: only bound to full length PLXDC1
B1: A006: VH SEQ ID NO:72, VL SEQ ID NO:73; Domain A-binding PLXDC1-activating antibody (antibody, V domains shown)
VH: QVQLVQSGAEVKKPGSSVKVSCKASGGTFSTEYISWVRQAPGQGLEWMGRIIPVLGITNYAQKFQGRVTITADESTSTAYMELSSLRSEDTAVYYCARHLGPPYLVTYSHGFDVWGQGTLVTVSS
VL: EIVMTQSPATLSVSPGERATLSCRASQSLGTNLAWYQQKPGQAPRLLIYGASTRATGIPARFSGSGSGTEFTLTISSLQSEDFAVYYCQQYYEAPPTFGQGTKVEIK
promotor activity in PLXDC1-expressing cells (PLXDC1 [1]; PLXDC1-expressing cells): activated the promotor activity
promotor activity in cells without PLXDC1 (PLXDC1 [1]; cells without PLXDC1): not in cells without PLXDC1
death of tumor endothelial cells expressing PLXDC1 [4]: led to the death of tumor endothelial cells expressing PLXDC1
